Measured values from publication PMC10349056, “The combined action of the intracellular regions regulates FGFR2 kinase activity” (Communications Biology, 2023).
Where no end group is shown, it is not given here.

Tests used:
Assay in all cases: MST; JM labelled with Atto 488, serial dilutions of KD titrated, 25 °C; 20 mM HEPES, 150 mM NaCl, 1 mM TCEP, 0.01% Tween 20, pH 7.5; the text calls the constant of KD^pY1 apparent (Kd,app)
Conditions in all cases: both partners purified
[1] = molecular target: T1, FGFR2 kinase domain, phosphorylation state pY5 (UniProt P21802-3 465-764, Y734F (worked out from the printed order of phosphorylation), phosphotyrosine at 657, 587, 467, 589 and 658)
T1 construct: FGFR2 (IIIb isoform) kinase domain, residues 465-764; numbers count on: FGFR2IIIb (C1 isoform, 822 residues); also called KD^pY5; source: E. coli BL21(DE3), purified (Talon, Superdex 75)

[2] = molecular target: T2, FGFR2 kinase domain, phosphorylation state pY2 (UniProt P21802-3 465-764, Y467F (worked out from the printed order of phosphorylation) | Y589F (worked …, phosphotyrosine at 657 and 587))
T2 construct: FGFR2 (IIIb isoform) kinase domain, residues 465-764; numbers count on: FGFR2IIIb (C1 isoform, 822 residues); also called KD^pY2; source: E. coli BL21(DE3), purified (Talon, Superdex 75)

[3] = molecular target: T3, FGFR2 kinase domain, phosphorylation state pY4 (UniProt P21802-3 465-764, Y658F (worked out from the printed order of phosphorylation) | Y734F (worked …, phosphotyrosine at 657, 587, 467 and 589))
T3 construct: FGFR2 (IIIb isoform) kinase domain, residues 465-764; numbers count on: FGFR2IIIb (C1 isoform, 822 residues); also called KD^pY4; source: E. coli BL21(DE3), purified (Talon, Superdex 75)

[4] = molecular target: T4, FGFR2 kinase domain K518I (catalytically inactive, non-phosphorylatable) (UniProt P21802-3 465-764, K518I)
T4 construct: FGFR2 (IIIb isoform) kinase domain, residues 465-764; numbers count on: FGFR2IIIb (C1 isoform, 822 residues); also called KD^K518I; source: E. coli BL21(DE3), purified (Talon, Superdex 75)
T4 sequence (P21802 464-763 K517I): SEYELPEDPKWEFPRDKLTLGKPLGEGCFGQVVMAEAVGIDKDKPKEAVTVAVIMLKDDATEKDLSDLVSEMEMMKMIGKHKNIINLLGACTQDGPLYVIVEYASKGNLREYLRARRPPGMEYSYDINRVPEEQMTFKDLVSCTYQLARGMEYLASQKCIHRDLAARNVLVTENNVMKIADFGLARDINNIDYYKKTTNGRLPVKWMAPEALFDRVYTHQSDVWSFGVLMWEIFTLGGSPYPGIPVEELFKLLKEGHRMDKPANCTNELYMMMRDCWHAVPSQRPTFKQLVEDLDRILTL

T2 sequence (P21802 464-763 Y466F/Y588F/Y657F/Y733F): as the sequence (P21802 464-763 K517I) above, with Y3F, I54K, Y125F, Y194F, Y270F counted along it
T1 sequence (P21802 464-763 Y733F): as the sequence (P21802 464-763 K517I) above, with I54K, Y270F counted along it
T3 sequence (P21802 464-763 Y657F/Y733F): as the sequence (P21802 464-763 K517I) above, with I54K, Y194F, Y270F counted along it

Kd [1]: 22.5 ± 1.8 µM | Kd [2]: 6.98 ± 0.877 µM | Kd [3]: 10.2 ± 1.33 µM | Kd [4]: 13.4 ± 0.994 µM
B1: FGFR2 juxtamembrane region (407-462), labelled with Atto 488 (peptide, UniProt P21802-3 407-462, looked up)
chain: KPDFSSQPAVHKLTKRIPLRRQVTVSAESSSSMNSNTPLVRITTRLSSTADTPMLA
modifications: also: labelled with Atto 488
notes: FGFR2 (IIIb isoform) juxtamembrane region, residues 407-462; numbers count on: FGFR2IIIb (C1 isoform, 822 residues); also called JM; 407Juxtamembrane region462; source: synthetic peptide, bought: Genscript
